In the supplement of paper PMC10567573:

B1: PDS5B (parent)
chain: IYKKYALQSAAGKDAAKQIAWIKD

Variants of: B1
Experiment: protein stability index of a GFP-peptide fusion (GPS, HEK-293T) (PSI 1-6); higher = more stable
Settings: c terminus: a fixed tail appended
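Further: lentivirally expressed fusions sorted by FACS into six bins by GFP to DsRed ratio, PSI derived from sequencing read proportions per bin multiplied by bin number.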

Going from IYKKYALQSAAGKDAAKAIAWIKD [Q18A] to IYKKYALQSAAGKDAAKCIAWIKD [Q18C], the protein stability index falls from 2.06 to 1.75.

Compared with IYKKYALQSAAGKAAAKQIAWIKD [D14A], IYKKYALQSAAGKEAAKQIAWIKD [D14E] is higher in protein stability index: 1.9 for the first, 2.1 for the second.

Compared with IYKKYALQSAAGKFAAKQIAWIKD [D14F], IYKKYALQSAAGKPAAKQIAWIKD [D14P] is higher in protein stability index: 2.07 for the first, 2.34 for the second.

First: IYKKYALQSAAGKKAAKQIAWIKD [D14K]
Second: IYKKYALQSAAGKWAAKQIAWIKD [D14W]
The protein stability index of the first is higher: 2.28 for the first, 2.1 for the second.

First: IYKKYALQSAAGKCAAKQIAWIKD [D14C]
Second: IYKKYALQSAAGKTAAKQIAWIKD [D14T]
The protein stability index of the first is lower: 1.36 for the first, 1.94 for the second.

Compared with IYKKYALQSAAGKVAAKQIAWIKD [D14V], IYKKYALQSAAGKIAAKQIAWIKD [D14I] is lower in protein stability index: 2.1 for the first, 1.82 for the second.

First: IYKKYALQSAAGKNAAKQIAWIKD [D14N]
Second: IYKKYALQSAAGKYAAKQIAWIKD [D14Y]
The protein stability index of the first is higher: 2.19 for the first, 1.85 for the second.

Compared with IYKKYALQSAAGKRAAKQIAWIKD [D14R], IYKKYALQSAAGKQAAKQIAWIKD [D14Q] is lower in protein stability index: 2.72 for the first, 2.15 for the second.

Going from IYKKYALQSAAGKSAAKQIAWIKD [D14S] to IYKKYALQSAAGKMAAKQIAWIKD [D14M], the protein stability index falls from 2.15 to 2.1.

First: IYKKYALQSAAGKHAAKQIAWIKD [D14H]
Second: IYKKYALQSAAGKGAAKQIAWIKD [D14G]
The protein stability index of the first is lower: 1.86 for the first, 2.24 for the second.

Going from IYKKYALQSAAGKLAAKQIAWIKD [D14L] to IYKKYALQSAAGKDAWKQIAWIKD [A16W], the protein stability index rises from 1.68 to 2.11.

First: IYKKYALQSAAGKDAKKQIAWIKD [A16K]
Second: IYKKYALQSAAGKDADKQIAWIKD [A16D]
The protein stability index of the first is lower: 2.33 for the first, 2.75 for the second.

First: IYKKYALQSAAGKDAFKQIAWIKD [A16F]
Second: IYKKYALQSAAGKDAVKQIAWIKD [A16V]
The protein stability index of the first is lower: 1.76 for the first, 2.98 for the second.

Compared with IYKKYALQSAAGKDAHKQIAWIKD [A16H], IYKKYALQSAAGKDANKQIAWIKD [A16N] is higher in protein stability index: 2.29 for the first, 2.39 for the second.

First: IYKKYALQSAAGKDATKQIAWIKD [A16T]
Second: IYKKYALQSAAGKDACKQIAWIKD [A16C]
The protein stability index of the first is higher: 2.46 for the first, 2.16 for the second.

Going from IYKKYALQSAAGKDASKQIAWIKD [A16S] to IYKKYALQSAAGKDAQKQIAWIKD [A16Q], the protein stability index falls from 2.47 to 2.35.

Going from IYKKYALQSAAGKDALKQIAWIKD [A16L] to IYKKYALQSAAGKDAGKQIAWIKD [A16G], the protein stability index rises from 2.09 to 2.92.

Compared with IYKKYALQSAAGKDAMKQIAWIKD [A16M], IYKKYALQSAAGKDAEKQIAWIKD [A16E] is higher in protein stability index: 2.02 for the first, 2.82 for the second.

Going from IYKKYALQSAAGKDAPKQIAWIKD [A16P] to IYKKYALQSAAGKDAIKQIAWIKD [A16I], the protein stability index rises from 2.05 to 2.47.

Compared with IYKKYALQSAAGKDAYKQIAWIKD [A16Y], IYKKYALQSAAGKDARKQIAWIKD [A16R] is higher in protein stability index: 2.05 for the first, 2.12 for the second.

Going from IYKKYALQSAAGKDAAHQIAWIKD [K17H] to IYKKYALQSAAGKDAADQIAWIKD [K17D], the protein stability index rises from 2.89 to 3.27.

First: IYKKYALQSAAGKDAAQQIAWIKD [K17Q]
Second: IYKKYALQSAAGKDAALQIAWIKD [K17L]
The protein stability index of the first is higher: 2.19 for the first, 2.07 for the second.

Compared with IYKKYALQSAAGKDAAGQIAWIKD [K17G], IYKKYALQSAAGKDAAMQIAWIKD [K17M] is lower in protein stability index: 2.35 for the first, 1.38 for the second.

Compared with IYKKYALQSAAGKDAASQIAWIKD [K17S], IYKKYALQSAAGKDAAVQIAWIKD [K17V] is lower in protein stability index: 2.67 for the first, 2.12 for the second.

First: IYKKYALQSAAGKDAAPQIAWIKD [K17P]
Second: IYKKYALQSAAGKDAAEQIAWIKD [K17E]
The protein stability index of the first is lower: 2.51 for the first, 3.42 for the second.

Going from IYKKYALQSAAGKDAAWQIAWIKD [K17W] to IYKKYALQSAAGKDAAAQIAWIKD [K17A], the protein stability index rises from 1.63 to 2.48.

Going from IYKKYALQSAAGKDAAYQIAWIKD [K17Y] to IYKKYALQSAAGKDAARQIAWIKD [K17R], the protein stability index rises from 1.66 to 2.67.

Compared with IYKKYALQSAAGKDAANQIAWIKD [K17N], IYKKYALQSAAGKDAATQIAWIKD [K17T] is higher in protein stability index: 2.51 for the first, 2.92 for the second.

First: IYKKYALQSAAGKDAAFQIAWIKD [K17F]
Second: IYKKYALQSAAGKDAAIQIAWIKD [K17I]
The protein stability index of the first is lower: 1.32 for the first, 1.79 for the second.

Compared with IYKKYALQSAAGKDAACQIAWIKD [K17C], IYKKYALQSAAGDDAAKQIAWIKD [K13D] is higher in protein stability index: 2.04 for the first, 2.6 for the second.

First: IYKKYALQSAAGEDAAKQIAWIKD [K13E]
Second: IYKKYALQSAAGQDAAKQIAWIKD [K13Q]
The protein stability index of the first is higher: 2.55 for the first, 2.1 for the second.

Compared with IYKKYALQSAAGCDAAKQIAWIKD [K13C], IYKKYALQSAAGLDAAKQIAWIKD [K13L] is higher in protein stability index: 1.94 for the first, 2.14 for the second.

Going from IYKKYALQSAAGRDAAKQIAWIKD [K13R] to IYKKYALQSAAGWDAAKQIAWIKD [K13W], the protein stability index falls from 2.77 to 1.84.

First: IYKKYALQSAAGTDAAKQIAWIKD [K13T]
Second: IYKKYALQSAAGVDAAKQIAWIKD [K13V]
The protein stability index of the first is higher: 2.3 for the first, 2 for the second.

First: IYKKYALQSAAGADAAKQIAWIKD [K13A]
Second: IYKKYALQSAAGSDAAKQIAWIKD [K13S]
The protein stability index of the first is higher: 2.93 for the first, 2.28 for the second.

First: IYKKYALQSAAGHDAAKQIAWIKD [K13H]
Second: IYKKYALQSAAGIDAAKQIAWIKD [K13I]
The protein stability index of the first is higher: 2.29 for the first, 2.16 for the second.

Going from IYKKYALQSAAGFDAAKQIAWIKD [K13F] to IYKKYALQSAAGGDAAKQIAWIKD [K13G], the protein stability index rises from 1.93 to 2.22.

First: IYKKYALQSAAGMDAAKQIAWIKD [K13M]
Second: IYKKYALQSAAGNDAAKQIAWIKD [K13N]
The protein stability index of the first is lower: 2.17 for the first, 2.27 for the second.

Going from IYKKYALQSAAGPDAAKQIAWIKD [K13P] to IYKKYALQSAAGYDAAKQIAWIKD [K13Y], the protein stability index rises from 2.4 to 2.92.

Going from IYKKYALQSATGKDAAKQIAWIKD [A11T] to IYKKYALQSAYGKDAAKQIAWIKD [A11Y], the protein stability index falls from 2.15 to 1.8.

Going from IYKKYALQSAPGKDAAKQIAWIKD [A11P] to IYKKYALQSANGKDAAKQIAWIKD [A11N], the protein stability index rises from 2.27 to 2.61.

Compared with IYKKYALQSAKGKDAAKQIAWIKD [A11K], IYKKYALQSADGKDAAKQIAWIKD [A11D] is higher in protein stability index: 2.5 for the first, 3.03 for the second.

First: IYKKYALQSACGKDAAKQIAWIKD [A11C]
Second: IYKKYALQSALGKDAAKQIAWIKD [A11L]
The protein stability index of the first is lower: 1.58 for the first, 1.8 for the second.

Compared with IYKKYALQSAFGKDAAKQIAWIKD [A11F], IYKKYALQSAMGKDAAKQIAWIKD [A11M] is higher in protein stability index: 1.75 for the first, 1.78 for the second.

Compared with IYKKYALQSAGGKDAAKQIAWIKD [A11G], IYKKYALQSAWGKDAAKQIAWIKD [A11W] is lower in protein stability index: 2.65 for the first, 1.82 for the second.

IYKKYALQSARGKDAAKQIAWIKD [A11R] and IYKKYALQSAHGKDAAKQIAWIKD [A11H] are the same in protein stability index: 1.75 for the first, 1.75 for the second.

First: IYKKYALQSASGKDAAKQIAWIKD [A11S]
Second: IYKKYALQSAIGKDAAKQIAWIKD [A11I]
The protein stability index of the first is higher: 2.3 for the first, 1.73 for the second.
